Assay results from patent publication US20150139982A1 (ALETHIA BIOTHERAPEUTICS, published 2015).
Numbering of substitutions follows the chain as printed. Values belong to the binder of their own block, whether it stands above or below them.

Columns and labels:
[1] = biological target: T1, Fc-Siglec-15 fusion protein (Homo sapiens (Human), UniProt Q6ZMC9 20-259, limits assumed); experiment: SPR, Fc-Siglec-15 immobilized (150 RU), antibody injected at 100, 33.3, 11.1, 3.70 and 1.23 nM, 1:1 fit
T1 construct: also called recombinant Siglec-15; purified Fc-Siglec-15; not shown: Fc region
T1 sequence: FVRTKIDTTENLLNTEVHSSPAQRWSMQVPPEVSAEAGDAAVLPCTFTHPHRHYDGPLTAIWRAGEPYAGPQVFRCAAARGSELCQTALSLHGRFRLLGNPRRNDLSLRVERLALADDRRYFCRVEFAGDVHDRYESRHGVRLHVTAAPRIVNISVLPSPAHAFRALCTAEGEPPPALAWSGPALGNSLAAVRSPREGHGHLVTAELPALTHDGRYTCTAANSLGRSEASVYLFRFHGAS
Method: (§1) FIG. 12. SPR chromatograms illustrating the differences in binding parameters between the humanized 25E9 L1H1 IgG1 (left panel) and the humanized 25E9 L1H1 IgG2 (right panel). Purified Fc-Siglec-15 was immobilized (150RU) and humanized 25E9 was injected at the indicated concentrations (100 nM, 33.3 nM, 11.1 nM, 3.70 nM and 1.23 nM). The curves were fit with a 1:1 ratio.
(§2) More particularly, we compared the binding activity of the humanized 25E9 L1H1 IgG1 (the L1H1 IgG1 variant) with the humanized 25E9 L1H1 IgG2 (the L1H1 IgG2 variant) using SPR. The analysis was conducted using methods similar to what was described above (see Example 6). In this instance, Fc-Siglec-15 was immobilized on the chip and decreasing concentrations of the 25E9 antibody variants were injected (100 nM, 33.3 nM, 11.1 nM, 3.70 nM and 1.23 nM). […] The difference in binding was mostly contributed by a slower off-rate (kd) of the IgG1 compared to the IgG2.

[2] = biological target: T1, Fc-Siglec-15 fusion protein; experiment: SPR, Fc-Siglec-15 immobilized, antibody injected at 100 to 1.23 nM, 1:1 fit
Method: as §1, §2

human Siglec-15 [3] = biological target: T2, human Siglec-15 (human, UniProt Q6ZMC9 20-328); experiment: flow cytometry on 293-6E cells transfected with human Siglec-15
T2 construct: also called h-Siglec-15; CD33L3
T2 sequence: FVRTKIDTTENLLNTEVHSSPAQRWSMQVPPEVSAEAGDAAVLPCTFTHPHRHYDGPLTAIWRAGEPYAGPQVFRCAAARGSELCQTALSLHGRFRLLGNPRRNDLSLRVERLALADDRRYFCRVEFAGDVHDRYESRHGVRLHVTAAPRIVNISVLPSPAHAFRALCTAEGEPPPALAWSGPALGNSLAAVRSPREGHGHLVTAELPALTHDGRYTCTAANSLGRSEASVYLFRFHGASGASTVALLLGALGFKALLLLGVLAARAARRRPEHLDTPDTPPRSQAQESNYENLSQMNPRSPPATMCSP
Method: (§3) We tested the ability of the humanized antibodies to interact with human Siglec-15 expressed on the surface of cultured cells. […] Twenty-four hours later, the cells were harvested, counted and 1×10⁵ cells were incubated with increasing concentrations of the humanized IgG1 variant of 25E9 for 1 hour at 4 C. Following a washing step with cold PBS, bound 25E9 was detected with an anti-human kappa light chain IgG conjugated to FITC. Fluorescently labeled cells were injected into a flow cytometer to measure the fluorescence signal on the surface of intact cells. […] The average KD was in the low nanomolar range. Furthermore, the binding parameters were very similar in the presence of the humanized 25E9 L1H1 IgG1 variant produced in either CHO cells or 293 cells. […] Similar results were obtained with other 25E9 humanized IgG1 antibody variants (the L1H2 IgG1, the L1H3 IgG1, the L1H4 IgG1 and, the L1H1 IgG2) or with the humanized 25D8 IgG2 antibody.

human Siglec-15 [4] = biological target: T2, human Siglec-15; experiment: cell-based or functional assay
human Siglec-15 [5] = biological target: T2, human Siglec-15; experiment: flow cytometry titration (0 to 4 µg/ml) on 293-6E cells transfected with human Siglec-15, detected with FITC anti-human kappa light chain; antibody made in 293 cells
Method: as §3

human Siglec-15 [6] = biological target: T2, human Siglec-15; experiment: flow cytometry on 293-6E cells transfected with human Siglec-15 cDNA
Excerpt: The average KD was in the low nanomolar range. Furthermore, the binding parameters were very similar in the presence of the humanized 25E9 L1H1 IgG1 variant produced in either CHO cells or 293 cells. […] Similar results were obtained with other 25E9 humanized IgG1 antibody variants (the L1H2 IgG1, the L1H3 IgG1, the L1H4 IgG1 and, the L1H1 IgG2) or with the humanized 25D8 IgG2 antibody.
Experiments were undertaken to examine the feasibility of targeting Siglec-15-expressing cells with an ADC. The humanized 25E9 L1H1 IgG1 variant was conjugated to a payload that is toxic to proliferating cells as well as non-proliferating or fully differentiated cells, in particular osteoclasts. The humanized 25E9 L1H1 IgG1 conjugated antibody was designated 25E9-ADC. Since the conjugation might affect the ability of 25E9 to interact with native Siglec-15, flow cytometry was conducted to measure the binding of the 25E9-ADC to Siglec-15 expressing cells.

human Siglec-15 [7] = biological target: T2, human Siglec-15; experiment: flow cytometry titration (0 to 4 µg/ml) on 293-6E cells transfected with human Siglec-15, detected with FITC anti-human kappa light chain; antibody made in CHO cells
Method: as §3

[8] = biological target: T1, Fc-Siglec-15 fusion protein; experiment: SPR, Fc-Siglec-15 immobilized, antibody injected
Method: as §1, §2

- koff [1]: 0.000655 s⁻¹
- kon [1]: 520000 M⁻¹ s⁻¹
- Kd [2]: 1.26 nM
B1: humanized 25E9 L1H1 IgG2 variant (antibody)
light: DIVMTQSPLSLPVTPGEPASISCRSTKSLLHSNGNTYLYWYLQKPGQSPQLLIYRMSNLASGVPDRFSGSGSGTDFTLKISRVEAEDVGVYYCMQHLEYPFTFGGGTKVEIKRTVAAPSVFIFPPSDEQLKSGTASVVCLLNNFYPREAKVQWKVDNALQSGNSQESVTEQDSKDSTYSLSSTLTLSKADYEKHKVYACEVTHQGLSSPVTKSFNRGEC
heavy: EIQLQQSGAEVKKPGSSVKVSCKASGYTFTDYDMHWVRQAPGQGLEWMGTIDPETGGTAYNQKFKGRVTITADKSTSTAYMELSSLRSEDTAVYYCTSFYYTYSNYDVGFAYWGQGTLVTVSSASTKGPSVFPLAPCSRSTSESTAALGCLVKDYFPEPVTVSWNSGALTSGVHTFPAVLQSSGLYSLSSVVTVPSSNFGTQTYTCNVDHKPSNTKVDKTVERKCCVECPPCPAPPVAGPSVFLFPPKPKDTLMISRTPEVTCVVVDVSHEDPEVQFNWYVDGVEVHNAKTKPREEQFNSTFRVVSVLTVVHQDWLNGKEYKCKVSNKGLPAPIEKTISKTKGQPREPQVYTLPPSREEMTKNQVSLTCLVKGFYPSDIAVEWESNGQPENNYKTTPPMLDSDGSFFLYSKLTVDKSRWQQGNVFSCSVMHEALHNHYTQKSLSLSPGK
notes: Full-length human kappa / human IgG2; also called humanized 25E9 IgG2

- binding result (human Siglec-15 [3]): binds
B2: humanized 25E9 L1H2 IgG1 (antibody, V domains shown)
VH: EIQLQQSGAEVKKPGSSVKVSCKASGYTFTDYDMHWVRQAPGQGLEWIGTIDPETGGTAYNQKFKGRATLTADRSTSTAYMELSSLRSEDTAVYYCTSFYYTYSNYDVGFAYWGQGTLVTVSS
VL: DIVMTQSPLSLPVTPGEPASISCRSTKSLLHSNGNTYLYWYLQKPGQSPQLLIYRMSNLASGVPDRFSGSGSGTDFTLKISRVEAEDVGVYYCMQHLEYPFTFGGGTKVEIKR
notes: The residue ranges are those stated in CLM-00047 (item b)

- binding result (human Siglec-15 [3]): binds
B3: humanized 25D8 IgG2 antibody (antibody, V domains shown)
VH: QVQLQQSGAEVKKPGSSVKVSCKASGYTFTSYWMHWVRQAPGQGLEWMGLINPSNARTNYNEKFNTRVTITADKSTSTAYMELSSLRSEDTAVYYCARGGDGDYFDYWGQGTTVTVSS
VL: B2 VL with S7T, T26S, N35I, R55Q, M94A, H96N, Y99L, F101Y
notes: Human kappa / human IgG2; also called humanized full-length IgG2 25D8

- binding result (human Siglec-15 [3]): binds
B4: humanized 25E9 L1H4 IgG1 (antibody, V domains shown)
VH: B2 VH with R38K, Q43H, R67K, R87T
VL: B2 VL
notes: The residue ranges are those stated in CLM-00047 (item d)

- fold difference in potency against the humanized 25E9 L1H1 IgG2 variant (osteoclast differentiation) (human Siglec-15 [4]): ~100 fold
- koff [1]: 0.000151 s⁻¹
- kon [1]: 921000 M⁻¹ s⁻¹
- Kd (human Siglec-15 [5]): 1.9 nM
- Kd [2]: 0.164 nM
- EC50 (read off the curve) (human Siglec-15 [6]): ~0.1 µg/mL
- Kd (human Siglec-15 [7]): 5.7 nM
- fold higher affinity than the humanized 25E9 L1H1 IgG2 variant [8]: ~10 fold
B5: humanized 25E9 L1H1 IgG1 variant (antibody)
light: B1 light
heavy: not shown
notes: Full-length human kappa / human IgG1; Produced in CHO or 293 cells; also called humanized IgG1 variant of 25E9; unconjugated 25E9

- EC50 (read off the curve) (human Siglec-15 [6]): ~0.2 µg/mL
B6: 25E9-ADC (humanized 25E9 L1H1 IgG1 conjugated antibody) (antibody)
light: B1 light
heavy: not shown
modifications: conjugated to a toxic payload; payload, linker and attachment residues not stated

- binding result (human Siglec-15 [3]): binds
B7: humanized 25E9 L1H3 IgG1 (antibody, V domains shown)
VH: B2 VH with R38K, R67K
VL: B2 VL
notes: The residue ranges are those stated in CLM-00047 (item c)
